Results on one molecule are retold here after US20230303666A1 (published 2023).

This experiment deals with recombinant RBD (ThermoFisher, RP-87678) (SARS-CoV-2, UniProt P0DTC2 319-541).

One may read the Kd as the constant that tells how readily two partners part at equilibrium.

B1: SR6v15 with GST tag (VHH, not shown: a dimerising Fc or GST)
VHH: EVQLVESGGGLVQAGDSLRLSCAASGDSYILWRMGWFRQAPGKEREFVAAISLDGQFTNYADSVRGRFSISADSAKYTVYLQMNSLKPEDTAVYYCAALPFLDYWGQGTQVTVSS
B1: the dissociation constant (Kd) was 2.18 nM.
